Source: patent US20190112361A1 (Genentech, published 2019)
Positions count from the first letter of the chain named. One block for each binder: values may come before it. No end group written: not given here.

What was measured:
Tau fragment 19-33 = molecular target: T1, Tau fragment 19-33 (human, UniProt P10636-8 19-33); assay: ELISA on Tau peptides (Example 8)
T1 construct: range 19-33
T1 peptide (looked up): GLGDRKDQGGYTMHQ

MAPT(10-24) = molecular target: T2, MAPT(10-24) (human, also: biotinylated); assay: ELISA on Tau peptides (Example 8)
T2 construct: also called Tau fragment 10-24
T2 peptide: VMEDHAGTYGLGDRK

Tau fragment 1-15 = molecular target: T3, Tau fragment 1-15 (human, UniProt P10636-8 1-15); assay: ELISA on Tau peptides (Example 8)
T3 construct: range 1-15
T3 peptide (looked up): MAEPRQEFEVMEDHA

Tau fragment 37-51 = molecular target: T4, Tau fragment 37-51 (human, UniProt P10636-8 37-51); assay: ELISA on Tau peptides (Example 8)
T4 construct: range 37-51
T4 peptide (looked up): GDTDAGLKESPLQTP

Tau fragment 28-42 = molecular target: T5, Tau fragment 28-42 (human, UniProt P10636-8 28-42); assay: ELISA on Tau peptides (Example 8)
T5 construct: range 28-42
T5 peptide (looked up): GYTMHQDQEGDTDAG

Oligomers = molecular target: T6, Oligomers (In vitro oligomerised (arachidonic acid and heparin) homo-oligomer of one polypeptide; one copy of the chain is given. Biotin sits on the AVI-tag, which is left out.); assay: capture ELISA, antibody on anti-IgG plate, biotinylated oligomeric Tau titrated
T6 construct: also called oligoTau; oligomeric Tau; not shown: AVI-tag (site-specifically biotinylated) and any purification tag or linker of the construct
Procedure: For the oligoTau and monoTau capture ELISAs, antibodies contained in serum-free sterile hybridoma supernatants were immobilized on an anti-IgG coated plate at 500-fold dilution, followed by the incubation of oligoTau or monoTau, both with site-specific biotinylation via an AVI-tag. The target incubations started at 5 μg/mL and then were diluted 8- or 16-fold. Streptavidin-HRP and ABTS substrate was used for signal quantitation in a plate reader (Tecan, Switzerland). Results are expressed as O.D.

[1] = molecular target: T7, full-length human Tau (flTau) (human, UniProt P10636-8 1-441); assay: direct ELISA, flTau coated at 1 µg/mL, hybridoma supernatant dilutions
T7 construct: also called human Tau, longest isoform (441 aa)
T7 sequence (P10636 other isoform, or with tags, fused parts or gaps limits assumed): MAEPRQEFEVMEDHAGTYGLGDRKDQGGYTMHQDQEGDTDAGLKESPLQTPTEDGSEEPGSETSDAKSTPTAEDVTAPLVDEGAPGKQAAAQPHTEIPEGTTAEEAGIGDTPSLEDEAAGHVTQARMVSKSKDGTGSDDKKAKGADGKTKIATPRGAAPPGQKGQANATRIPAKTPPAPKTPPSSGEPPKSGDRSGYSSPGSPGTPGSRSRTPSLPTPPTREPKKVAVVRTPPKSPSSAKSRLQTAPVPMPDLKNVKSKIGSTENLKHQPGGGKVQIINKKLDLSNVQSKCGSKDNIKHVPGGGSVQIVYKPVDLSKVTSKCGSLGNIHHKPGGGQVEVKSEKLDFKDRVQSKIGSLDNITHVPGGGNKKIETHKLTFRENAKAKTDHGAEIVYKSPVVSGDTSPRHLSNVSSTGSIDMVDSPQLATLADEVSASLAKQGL
Description: Serum-free supernatants were harvested from stable hybridomas. The supernatants containing antibodies of interest were then screened by ELISA assays to characterize antibody properties and select antibodies for further development. The ELISA assays were used to determine the following: binding to full-length human Tau (flTau; SignalChem, Canada), binding to hyperphosphorylated flTau (Genentech, USA), binding to oligomeric versus monomeric preparations of flTau, and binding to certain antibody Tau epitope(s).
Coating was done overnight in phosphate-buffered saline (PBS) at 4° C. Plates were washed thoroughly with 0.05% Tween-20/PBS and then blocked with 1% bovine serum albumin (BSA) in 0.05% Tween-20/PBS for 1 hr at 37° C. The antibody contained in the hybridoma supernatant was then added at the indicated dilutions, and incubated for 2 hrs at 37° C. after which the plates were washed as described previously.
For the direct ELISAs, an AP-conjugated anti-mouse IgG secondary antibody (Jackson ImmunoResearch Laboratories, United Kingdom) was added at 1/6000 dilution in 0.05% Tween-20/PBS for 2 hr at 37° C. After the final wash, plates were incubated with p-nitrophenyl phosphate disodium hexahydrate (pNPP; Sigma-Aldrich, Switzerland) phosphatase substrate solution, and read at 405 nm using an ELISA plate reader (Tecan, Switzerland). Results are expressed as optical densities (O.D.).

MAPT(2-34) = molecular target: T8, MAPT(2-34) (human, biotinylated); assay: ELISA, biotinylated peptide on Neutravidin plate, IgG titrated
T8 construct: also called Tau fragment 2-34
T8 peptide: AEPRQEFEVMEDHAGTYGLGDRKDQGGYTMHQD
Procedure: (§1) Following a comparison of 37D3-H9 binding to biotinylated Tau monomer and biotinylated peptide (MAPT_10-24), binding of 37D3-H9 to additional biotinylated peptides was also assessed. Nunc maxisorp 96-well microplates were coated at 4° C. for >12 hours with Neutravidin diluted to 2 μg/ml in 50 mM Sodium Carbonate Buffer, pH 9.6. All subsequent incubations were performed at room temperature. After coating, plates were blocked with Superblock™ (PBS) Blocking Buffer (Thermo Fisher Scientific) for two hours then washed thoroughly with PBS, 0.05% Polysorbate 20. Wells were then exposed to biotinylated Tau peptides (Table 20) or Avi-tag biotinylated Tau monomer at 1 μg/ml for one hour and washed as previously. Peptides were synthesized using standard solid-phase Fmoc chemistry (see, e.g., Fmoc solid phase peptide synthesis: A practical approach; Chan, W. C., White, P. D., Eds.; Oxford University Press: New York, 2000). […] Wells were washed as previously and bound antibody detected with peroxidase-conjugated secondary antibody (Invitrogen/Life Technologies) diluted 1/1000 in Superblock™ Blocking Buffer (Rabbit anti-Mouse IgG or Goat Anti-Human IgG (H+L) respectively). […] Reactions were stopped by addition of 1M Phosphoric Acid and absorbance at 450 nm was measured with a SpectraMax M2 platereader.

MAPT(2-24) = molecular target: T9, MAPT(2-24) (human, biotinylated); assay: as above
T9 construct: also called Tau fragment 2-24
T9 peptide: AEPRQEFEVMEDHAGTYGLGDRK
Procedure: as §1

[2] = molecular target: T10, human Tau monomer (recombinant 2N4R isoform, amino acids 2-441) (human, UniProt P10636-8 2-441); assay: ELISA, Avi-tag biotinylated Tau monomer on Neutravidin plate, IgG titrated
T10 construct: range 2-441; also called monomeric human Tau; monomeric Tau
Procedure: as §1

B1: 89F4-A1 (antibody, mouse IgG2a, V domains shown)
VH: EVQLVESGGGLVQPKGSLKLSCAASGFTFNTYAMNWVRQAPGKGLEWVARIRSKSNNYAAYFADSVKDRFTISRDDSQTMLYLQMNNLKSEDTAMYYCVSGGNYVPFAYWGQGTLVTVSA
VL: NIMMTQSPSSLAVSAGEKVTMSCKSSQSVFYSSEQRNYLAWYQQKPGQSPKLLISWASTRESGVPDRFTGSGSGTDFTLTISSVQGEDLAVYYCHQYLSSFTFGSGTKLEIK
- binding result (Tau fragment 19-33): no binding (tested: not shown on the sheet)
- binding result (MAPT(10-24)): no binding (tested: not shown on the sheet)
- binding result (Tau fragment 1-15): no binding (tested: not shown on the sheet)

B2: 94B2-C1 (antibody, mouse IgG2a, V domains shown)
VH: EVQLQQSGPELVKPGASMKISCKASGYSLTGYTMNWVKQSHGKNLEWIGLISPYNGVTSYNQKFKGKATLTVDKSSNTAYMELLSLTFEDSAVYYCARQGAYWGQGTLVTVSA
VL: not shown
- binding result (Tau fragment 37-51): no binding (tested: not shown on the sheet)
- binding result (Tau fragment 28-42): no binding (tested: not shown on the sheet)

B3: 19H6-F7 (antibody, mouse IgG2a, V domains shown)
VH: EVQLVESGGDLVKPGGSLKLSCAASGFTFSSYGMSWVRQTPDKRLEWVATISSGGTYTYYPDSVKGRFTISRDNAKNTLYLQMSSLKSEDTAMYYCAPSYDGAMDYWGQGTSVTVSS
VL: DVLMTQTPLSLPVSLGDQASISCRSSQSIVHSNGNTYLEWYLQKPGQSPKLLIYKVSNRFSGVPDRFSGSGSGTDFTLKISRVEAEDLGVYYCFQGSLVPWTFGGGTKLEIK
- binding result (Tau fragment 19-33): no binding (tested: not shown on the sheet)
- binding result (Tau fragment 37-51): no binding (tested: not shown on the sheet)
- binding result (Tau fragment 28-42): no binding (tested: not shown on the sheet)
- binding result (Tau fragment 1-15): no binding (tested: not shown on the sheet)

- binding result (Oligomers): binds
B4: 19F8-B1 (antibody, V domains shown)
VH: EVQLQQSGPELVKPGASVKMSCKASGYTFTDYYMKWVKQSHGKSLEWIGDLNPNNGGTLYNQKFKGQATLTVDKSSSTAYMQFNSLTSEDSAVYYCARSAGYGDSFAYWGQGTLVTVSA
VL: B3 VL with S28N, V90I, Y92F, L98H, W101P
notes: hybridoma supernatant

- binding result [1]: binds
B5: 12A10-E8 (antibody, V domains shown)
VH: QIQLVQSGPELKKPGETVKISCKASGYTFTNYGMNWVKQAPGKGLKWMGWINMYTGEPTYGDDFKGRFVFSLETSVSTVYLQINNLKKEDTATFFCARGGRPDYWGQGTSVTVSS
VL: B3 VL with S57F, S81N, F94L, L98H, W101Y
notes: hybridoma supernatant

B6: 123E9-A1 (antibody, mouse IgG2a, V domains shown)
VH: B4 VH with L51I, N52D, L59S, Q67K, F83L, Y102F, A107S, Y108F, Q111L
VL: B3 VL with V90F, L98H, W101P
- binding result (MAPT(10-24)): no binding (tested: not shown on the sheet)
- binding result (Tau fragment 37-51): no binding (tested: not shown on the sheet)
- binding result (Tau fragment 1-15): no binding (tested: not shown on the sheet)

- EC50 (read off the curve) (MAPT(2-34)): ~0.2 nM
- EC50 (read off the curve) (MAPT(2-24)): ~0.2 nM
- EC50 (read off the curve) [2]: ~0.1 nM
B7: 37D3-H9 (antibody, mouse IgG2a, V domains shown)
VH: B3 VH with V12A, A23T, F27L, T28I, S30R, S52N, P98N, D101S
VL: B3 VL with V2D, M4L, Q18P, L38F
notes: also called 37D3-H9 mIgG2a; 37D3-H9 IgG
- binding result (Tau fragment 19-33): no binding (tested: not shown on the sheet)
- binding result (Tau fragment 37-51): no binding (tested: not shown on the sheet)
- binding result (Tau fragment 28-42): no binding (tested: not shown on the sheet)
- binding result (Tau fragment 1-15): no binding (tested: not shown on the sheet)

B8: 54C1-H11 (antibody, mouse IgG2a, V domains shown)
VH: B3 VH with L20V, A23V, S30R, E46D, T56N, P98S, D101S
VL: B3 VL with V2T, L3V, T7S, K55T, L98H
- binding result (Tau fragment 19-33): no binding (tested: not shown on the sheet)
- binding result (Tau fragment 37-51): no binding (tested: not shown on the sheet)
- binding result (Tau fragment 28-42): no binding (tested: not shown on the sheet)
- binding result (Tau fragment 1-15): no binding (tested: not shown on the sheet)

- binding result (Oligomers): binds
B9: 11E10-B8 (antibody, mouse IgG2a, V domains shown)
VH: B3 VH with S30R, S53G, T56S, P98V
VL: B3 VL with V90L, L98H

- binding result (MAPT(10-24)): binds
B10: 3A4-H4 (antibody, mouse IgG2a, V domains shown)
VH: B3 VH with Y95F, P98T
VL: B3 VL with S28N, S97T
- binding result (Tau fragment 19-33): no binding (tested: not shown on the sheet)
- binding result (Tau fragment 37-51): no binding (tested: not shown on the sheet)
- binding result (Tau fragment 28-42): no binding (tested: not shown on the sheet)
- binding result (Tau fragment 1-15): no binding (tested: not shown on the sheet)

- binding result (Oligomers): binds
B11: 26C1-C8 (antibody, V domains shown)
VH: EVHLQQSGAELVRSGASVKLSCTASGFNIKDYYMYWVKQRPEQGLEWIGWIDPENGDTEYFPKFQGKATMTADTSSKTAYLQLSSLTSEDTAVYYCNAWRARATNSALDYWGQGTSVTVSS
VL: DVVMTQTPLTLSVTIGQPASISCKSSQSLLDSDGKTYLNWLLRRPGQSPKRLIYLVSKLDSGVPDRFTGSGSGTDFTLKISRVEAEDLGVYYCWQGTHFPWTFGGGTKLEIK
notes: hybridoma supernatant
